Reference: US20200308575A1 (TWIST BIOSCIENCE, published 2020)

B1: PD1-48 (antibody, V domains shown)
VH: EVQLVESGGGLVQPGRSLRLSCAASGFTFDDYALHWVRQAPGKDLEWVSGISWNSGSQGYADSVKGRFTISRDNAKNSLYLQMNSLRAEDTALYYCVREKGPGLTGSTADYYGLDAWGQGTMVTVSS
B2: PD1-22 (antibody, V domains shown)
VH: EVQLVESGGGLVQPGRSLRLSCAASGFTFDDYAMHWVRQAPGKDLEWVSGISWNGGSMGYAASVKGRFTISRDNAKNSLYLQMNSLRAEDTALYYCVREKGPGLTGSTADYYGLDAWGQGTMVTVSS
B3: PD1-24 (antibody, V domains shown)
VH: EVQLVESGGGLVQPGRSLRLSCAASGFTFDDYAMHWVRQAPGKDLEWVSGISWNSGSMGYAASVKGRFTISRDNAKNSLYLQMNSLRAEDTALYYCVREKGPGLTGSTADYYGLDAWGQGTMVTVSS
B4: PD1-50 (antibody, V domains shown)
VH: EVQLVESGGGLVQPGRSLRLSCAASGFTFDDYAFHWVRQAPGKDLEWVSGISWNAGSQGYADSVKGRFTISRDNAKNSLYLQMNSLRAEDTALYYCVREKGPGLTGSTADYYGLDAWGQGTMVTVSS
B5: PD1-49 (antibody, V domains shown)
VH: EVQLVESGGGLVQPGRSLRLSCAASGFTFDDYAFHWVRQAPGKDLEWVSGISWNSGSQGYADSVKGRFTISRDNAKNSLYLQMNSLRAEDTALYYCVREKGPGLTGSTADYYGLDAWGQGTMVTVSS
B6: PD1-44 (antibody, V domains shown)
VH: EVQLVESGGGLVQPGRSLRLSCAASGFTFDDYALHWVRQAPGKDLEWVSGISWNSGSYGYADSVKGRFTISRDNAKNSLYLQMNSLRAEDTALYYCVREKGPGLTGSTADYYGLDAWGQGTMVTVSS
B7: PD1-20 (antibody, V domains shown)
VH: EVQLVESGGGLVQPGRSLRLSCAASGFTFDDYAMHWVRQAPGKDLEWVSGISWNGGSMGYADSVKGRFTISRDNAKNSLYLQMNSLRAEDTALYYCVREKGPGLTGSTADYYGLDVWGQGTMVTVSS
B8: PD1-32 (antibody, V domains shown)
VH: EVQLVESGGGLVQPGRSLRLSCAASGFTFDDYAMHWVRQAPGKDLEWVSGISWNSGSMGYADSVKGRFTISRDNAKNSLYLQMNSLRAEDTALYYCVREKGPGLTGSTADYYGLDAWGQGTMVTVSS
B9: PD1-39 (antibody, V domains shown)
VH: EVQLVESGGGLVQPGRSLRLSCAASGFTFDDYALHWVRQAPGKDLEWVSGISWNGGSYGYADSVKGRFTISRDNAKNSLYLQMNSLRAEDTALYYCVREKGPGLTGSTADYYGLDAWGQGTMVTVSS
B10: PD1-45 (antibody, V domains shown)
VH: EVQLVESGGGLVQPGRSLRLSCAASGFTFDDYALHWVRQAPGKDLEWVSGISWNAGSQGYADSVKGRFTISRDNAKNSLYLQMNSLRAEDTALYYCVREKGPGLTGSTADYYGLDAWGQGTMVTVSS
B11: PD1-38 (antibody, V domains shown)
VH: EVQLVESGGGLVQPGRSLRLSCAASGFTFDDYALHWVRQAPGKDLEWVSGISWNGGSMGYADSVKGRFTISRDNAKNSLYLQMNSLRAEDTALYYCVREKGPGLTGSTADYYGLDAWGQGTMVTVSS
B12: PD1-21 (antibody, V domains shown)
VH: EVQLVESGGGLVQPGRSLRLSCAASGFTFDDYAMHWVRQAPGKDLEWVSGISWNGGSMGYAASVKGRFTISRDNAKNSLYLQMNSLRAEDTALYYCVREKGPGLTGSTADYYGLDVWGQGTMVTVSS
B13: PD1-23 (antibody, V domains shown)
VH: QVQLVQSGAEVKKPGASVKVSCKASGYPFTSYGISWVRQAPGQGLEWMGWISAYNGNTNYAQKLQGRVTMTTDTSTSTAYMELRSLRSDDTAVYYCARDVDYSSGSGYWGQGTLVTVSS
VL: SYELMQPPSVSVSPGQTARITCSGDALPKQYAYWYQQKPGQAPVLVIYKDTERPSGIPERFSGSSSGTTVTLTISGVQAEDEADYYCQSADNSITYRVFGGGTKLTVL
notes: IgG in the assay
B14: PD1-30 (antibody, V domains shown)
VH: QVQLVQSGAEVKKPGASVKVSCKASGYTFNNYGVSWVRQAPGQGLEWMGWVSAYSGNTNYAQKLQGRVTMTTDTSTSTAYMELRSLRSDDTAVYYCARDADYASGSGYWGQGTLVTVSS
VL: SYELMQPPSVSVSPGQTARITCSGDALSNQYTYWYQQKPGQAPVLVIYKDKKRPSGIPERFSGSSSGTTVTLTISGVQAEDEADYYCQSADNSITYRVFGGGTKLTVL
notes: IgG in the assay
B15: PD1-11 (antibody, V domains shown)
VH: QVQLVQSGAEVKKPGASVKVSCKASGYTFSNYGFSWVRQAPGQGLEWMGWISPYSGNTKYAQKLQGRVTMTTDTSTSTAYMELRSLRSDDTAVYYCARDADYSIGSGYWGQGTLVTVSS
VL: SYELMQPPSVSVSPGQTARITCSGDALPRQYAHWYQQKPGQAPVLVIYKDNVRPSGIPERFSGSSSGTTVTLTISGVQAEDEADYYCQSADTSTIYRVFGGGTKLTVL
notes: IgG in the assay
B16: PD1-43 (antibody, V domains shown)
VH: QVQLVQSGAEVKKPGASVKVSCKASGYTFSNYGISWVRQAPGQGLEWMGWISAYSGNTKYAQKLQGRVTMTTDTSTSTAYMELRSLRSDDTAVYYCARDADYASGSGYWGQGTLVTVSS
VL: SYELMQPPSVSVSPGQTARITCSGDALPRQYAHWYQQKPGQAPVLVIYKDNERPSGIPERFSGSSSGTTVTLTISGVQAEDEADYYCQSADTSTIYRVFGGGTKLTVL
notes: IgG in the assay
B17: PD1-27 (antibody, V domains shown)
VH: QVQLVQSGAEVKKPGASVKVSCKASGYPFTNYGITWVRQAPGQGLEWMGWISAYNGNTNYAQKLQGRVTMTTDTSTSTAYMELRSLRSDDTAVYYCARDWDYSSGSGYWGQGTLVTVSS
VL: SYELMQPPSVSVSPGQTARITCSGDILPKQYAYWYQQKPGQAPVLVIYKDNERASGIPERFSGSSSGTTVTLTISGVQAEDEADYYCQSADNSITYRVFGGGTKLTVL
notes: IgG in the assay
B18: PD1-10 (antibody, V domains shown)
VH: QVQLVQSGAEVKKPGASVKVSCKASGYRFTSYGISWVRQAPGQGLEWMGWISAYNGNTNYAQKLQGRVTMTTDTSTSTAYMELRSLRSDDTAVYYCARDADYASGSGYWGQGTLVTVSS
VL: SYELMQPPSVSVSPGQTARITCSGDALPKQYAYWYQQKPGQAPVLVIYKDTERPSGIPERFSGSSSGTTVTLTISGVQAEDEADYYCQSADNSITYRVFGGGTKLTVL
notes: IgG in the assay
B19: PD1-25 (antibody, V domains shown)
VH: QVQLVQSGAEVKKPGASVKVSCKASGYSFTRYGISWVRQAPGQGLEWMGWISPYSGNTKYAQKLQGRVTMTTDTSTSTAYMELRSLRSDDTAVYYCARDADYGSGSGYWGQGTLVTVSS
VL: SYELMQPPSVSVSPGQTARITCSGDALPDQYAYWYQQKPGQAPVLVIYKDYERPSGIPERFSGSSSGTTVTLTISGVQAEDEADYYCQSADNSITYRVFGGGTKLTVL
notes: IgG in the assay
B20: PD1-14 (antibody, V domains shown)
VH: QVQLVQSGAEVKKPGASVKVSCKASGYPFTNYGISWVRQAPGQGLEWMGWTSAYSGNTNYAQKLQGRVTMTTDTSTSTAYMELRSLRSDDTAVYYCARDFDYSSGSGYWGQGTLVTVSS
VL: SYELMQPPSVSVSPGQTARITCSGDALPKQYAYWYQQKPGQAPVLVIYKDTERRSGIPERFSGSSSGTTVTLTISGVQAEDEADYYCQSADNSITYRVFGGGTKLTVL
notes: IgG in the assay
B21: PD1-12 (antibody, V domains shown)
VH: QVQLVQSGAEVKKPGASVKVSCKASGYTFNTYGVSWVRQAPGQGLEWMGWISAYSGNTRYAQKLQGRVTMTTDTSTSTAYMELRSLRSDDTAVYYCARDFDYSSGSGYWGQGTLVTVSS
VL: SYELMQPPSVSVSPGQTARITCSGDALPKQYAYWYQQKPGQAPVLVIYKDTERPSGIPERFSGSSSGTTVTLTISGVQAEDEADYYCQSADNSITYRVFGGGTKLTVL
notes: IgG in the assay
B22: PD1-36 (antibody, V domains shown)
VH: QVQLVQSGAEVKKPGASVKVSCKASGYTFSSYGVSWVRQAPGQGLEWMGWISAYSGSTNYAQKLQGRVTMTTDTSTSTAYMELRSLRSDDTAVYYCARDAVYSSGSGYWGQGTLVTVSS
VL: SYELMQPPSVSVSPGQTARITCSGDALPNQYAHWYQQKPGQAPVLVIYKDTQRPSGIPERFSGSSSGTTVTLTISGVQAEDEADYYCQSADNSITYRVFGGGTKLTVL
notes: IgG in the assay
B23: PD1-42 (antibody, V domains shown)
VH: QVQLVQSGAEVKKPGASVKVSCKASGYTFNNFGISWVRQAPGQGLEWMGWISAYNGNTDYAQKLQGRVTMTTDTSTSTAYMELRSLRSDDTAVYYCARDMDYSSGSGYWGQGTLVTVSS
VL: SYELMQPPSVSVSPGQTARITCSGDALSNQYAYWYQQKPGQAPVLVIYKDTETPSGIPERFSGSSSGTTVTLTISGVQAEDEADYYCQSADNSITYRVFGGGTKLTVL
notes: IgG in the assay
B24: PD1-4 (antibody, V domains shown)
VH: QVQLVQSGAEVKKPGASVKVSCKASGYTFSTSGISWVRQAPGQGLEWMGWISAYNGNTNYAQKLQGRVTMTTDTSTSTAYMELRSLRSDDTAVYYCARDFDYSSGSGYWGQGTLVTVSS
VL: SYELMQPPSVSVSPGQTARITCSGDALPKQYAYWYQQKPGQAPVLVIYKDTERPSGIPERFSGSSSGTTVTLTISGVQAEDEADYYCQSADNSITYRVFGGGTKLTVL
notes: IgG in the assay
B25: PD1-18 (antibody, V domains shown)
VH: QVQLVQSGAEVKKPGASVKVSCKASGYTFNNYGISWVRQAPGQGLEWMGWISAYSGHTDYAQKLQGRVTMTTDTSTSTAYMELRSLRSDDTAVYYCARDWDYSSGSGYWGQGTLVTVSS
VL: SYELMQPPSVSVSPGQTARITCSGDALSNQYGYWYQQKPGQAPVLVIYKDNERASGIPERFSGSSSGTTVTLTISGVQAEDEADYYCQSADNSITYRVFGGGTKLTVL
notes: IgG in the assay
B26: PD1-17 (antibody, V domains shown)
VH: QVQLVQSGAEVKKPGASVKVSCKASGYTFSKYGISWVRQAPGQGLEWMGWISAYSGHTDYAQKLQGRVTMTTDTSTSTAYMELRSLRSDDTAVYYCARDFDYSSGSGYWGQGTLVTVSS
VL: SYELMQPPSVSVSPGQTARITCSGDALPEQYAYWYQQKPGQAPVLVIYKDTERSSGIPERFSGSSSGTTVTLTISGVQAEDEADYYCQSADNSITYRVFGGGTKLTVL
notes: IgG in the assay

molecular target: program cell death protein 1 (PD-1) (UniProt Q15116 25-167, limits assumed); assay: SPR (Carterra LSA), IgG, monovalent affinity
Sequence (Q15116 25-167 limits assumed): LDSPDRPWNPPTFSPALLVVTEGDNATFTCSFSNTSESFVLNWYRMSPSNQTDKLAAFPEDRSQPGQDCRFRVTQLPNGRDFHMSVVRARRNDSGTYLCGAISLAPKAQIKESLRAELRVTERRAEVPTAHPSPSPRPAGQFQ

Binder	Kd [nM]
B1	64.3
B2	132
B3	190
B4	87.5
B5	201
B6	226
B7	109
B8	92.2
B9	240
B10	243
B11	204
B12	92
B13	69.2
B14	68.8
B15	48.1
B16	54.4
B17	88.6
B18	47.4
B19	76
B20	45.9
B21	53.5
B22	84.9
B23	53.6
B24	31.4
B25	68.4
B26	60.1
